This test has as its target T1, Human Plasma Kallikrein (Homo sapiens, UniProt P03952).
T1 construct: purchased Molecular Innovations, Inc, USA
The test is described as follows: Phage selection of leader-free SynLib1 library modified by Celf ProcM enzyme-leader fusions on biotinylated kallikrein (output titre). The format is binding. The protocol: Human Plasma Kallikrein (Molecular Innovations, Inc, USA) at 1.15 mg/ml (13 μM) solution in 4 mM acetate, 150 mM NaCl, pH 5.3 was biotinylated using NHS-PEG4-Biotin from the EZ-link micro-PEO4-biotinylation kit (Pierce Biotechnology, USA). 680 μl of water was added to the contents of the pre-weighed vial of biotinylation reagent to make a 5 mM solution. 1 μl of this solution was added to 100 μl of the kallikrein solution. This was incubated at RT for 1 hour prior to the separation of the biotinylated protein from the unreacted biotin, using a 2 ml Spin Desalting column (Pierce Biotechnology, USA). The volume of the kallikrein was made up to 350 μl with PBS (Formedium Ltd, UK) and was loaded onto the spin column which had been equilibrated with PBS (as per the manufacturer's instructions). When this solution had been absorbed into the column matrix, a further 50 μl of PBS was added on top and the column was spun in a centrifuge at 1000 g for 2 min. 395 μl of solution was collected, making the concentration of the biotinylated kallikrein about 3.25 μM.
150 μl of stock leader-free SynLib1 library (4.5e11 phage per μl) was added to 1850 μl of TE buffer, 2 μl 1 M TCEP (Melford Biolaboratories Ltd, UK) and incubated at RT for 20 minutes to reduce the peptides on the phage. 400 μl of 2.5 M NaCl, 20% w/v PEG 8000 was added, incubated at RT for five minutes and the precipitated phages were collected by centrifugation at 15000 g for five minutes. The supernatant was discarded and the phages were resuspended in 150 μl of 25 mM Tris pH 7.5 (Sigma Aldrich, Austria), 1 μM TCEP.
Selections are performed by removing streptavidin-binding clones by pre-exposing the library to streptavidin resin, which is then discarded, mixing the library with decreasing concentrations of biotinylated target for an hour at each round of selection, capture of the biotinylated target and thereby any phage binding the target with magnetic streptavidin resin followed by extensive washing of the resin. Finally, the washed resin has the phage eluted from the target by exposure to a low pH solution, neutralisation of the solution and infection of E. coli by the eluted phage.
Round 1 (R1) of the selection was performed by adding 50 μl of LodeStars streptavidin resin (Agilent Technologies, USA), from which the liquid had been removed by magnetic capture, to the modified phage solution for 30 minutes to capture the peptide sequence that bind to streptavidin (deselection). The resin was captured magnetically and the phage-containing supernatant was collected and made up to 500 μl with 25 mM Tris pH 7.5, 0.05% Tween 20 (Melford Biolaboratories Ltd, UK). Biotinylated kallikrein was added to 100 nM, and mixed at RT for 1 hour prior to processing on a KingFisher mL (Thermo Fisher, Austria) magnetic particle washer. The processing involved the KingFisher transferring 25 μl of streptavidin resin to the phage solution and mixing for five minutes. The resin/phage were then collected and washed in 8×1 ml of PBS+0.05% Tween 20 (PBST). The resin was then mixed in 50 μl of 50 mM glycine pH 2.2 (Melford Biolaboratories Ltd, UK) for five minutes to elute the phage and the resin was removed. The phage-containing supernatant was neutralised with 10 μl of 1 M Tris pH 8.0 and added to 1 ml of TG1 cells at A600 of 0.6 followed by incubation at 37° C., 250 rpm for 1 hour. The phage titre was determination by adding 4 μl of culture to 96 μl of water, which was used to make five, 10-fold dilutions; 10 μl from each of these was spotted onto an LB+tetracycline agar plate. The remainder of the culture was made up to 11 ml with 2TY plus tetracycline and incubated at 37° C., 250 rpm overnight.
10 ml of overnight culture was reduced with 10 μl of 1 M TCEP for 20 min at RT followed by removal of the cells by centrifugation at 15000 g for five minutes. […]

T1 sequence (P03952 20-638): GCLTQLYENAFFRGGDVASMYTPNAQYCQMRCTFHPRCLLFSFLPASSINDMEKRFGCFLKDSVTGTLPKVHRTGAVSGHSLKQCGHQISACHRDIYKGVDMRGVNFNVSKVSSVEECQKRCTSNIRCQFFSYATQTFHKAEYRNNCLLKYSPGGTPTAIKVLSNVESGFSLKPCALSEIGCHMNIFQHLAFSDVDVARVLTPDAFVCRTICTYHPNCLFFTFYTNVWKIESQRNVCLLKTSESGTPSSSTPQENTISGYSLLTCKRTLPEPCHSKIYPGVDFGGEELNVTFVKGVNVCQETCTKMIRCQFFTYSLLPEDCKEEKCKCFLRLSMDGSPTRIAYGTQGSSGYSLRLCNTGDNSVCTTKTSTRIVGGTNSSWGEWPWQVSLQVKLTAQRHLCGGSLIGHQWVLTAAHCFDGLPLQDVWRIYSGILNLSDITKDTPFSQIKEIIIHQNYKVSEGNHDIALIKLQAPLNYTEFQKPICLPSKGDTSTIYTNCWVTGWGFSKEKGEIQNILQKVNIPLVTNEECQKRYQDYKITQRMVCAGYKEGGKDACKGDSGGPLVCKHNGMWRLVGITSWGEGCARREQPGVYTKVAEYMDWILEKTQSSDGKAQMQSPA

B1: CelfProcM5: C-terminal leaderA4.3 ProcM enzyme-leader fusion, 5-pair linker, used to modify leader-free SynLib1 (protein)
chain: MSEEQLKAFIAKVQADTSLQEQLKAEGADVVAIAKAAGFTITTEDLNSHRQNLTDDELEGVAGGSASGSGSGSAMESPSSWKTSWLAAIAPDEPHKFDRRLEWDELSEENFFAALNSEPASLEEDDPCFEEALQDALEALKAAWDLPLLPVDNNLNRPFVDVWWPIRCHSAESLRQSFVSDSAGLADEIFDQLADSLLDRLCALGDQVLWEAFNKERTPGTMLLAHLGAAGDGSGPPVREHYERFIQSHRRNGLAPLLKEFPVLGRLIGTVLSLWFQGSVEMLQRICADRTVLQQCFAIPCGHHLKTVKQGLSDPHRGGRAVAVLEFADPNSTANSSMHVVYKPKDMAVDAAYQATLADLNTHSDLSPLRTLAIHNGNGYGYMEHVVHHLCANDKELTNFYFNAGRLTALLHLLGCTDCHHENLIACGDQLLLIDTETLLEADLPDHISDASSTTAQPKPSSLQKQFQRSVLRSGLLPQWMFLGESKLAIDISALGMSPPNKPERIALGWLGFNSDGMMPGRVSQPVEIPTSLPVGIGEVNPFDRFLEDFCDGFSMQSEALIKLRNRWLDVNGVLAHFAGLPRRIVLRATRVYFTIQRQQLEPTALRSPLAQALKLEQLTRSFLLAESKPLHWPIFAAEVKQMQHLDIPFFTHLIDADALQLGGLEQELPGFIQTSGLAAAYERLRNLDTDEIAFQLRLIRGAVEARELHTTPESSPTLPPPATPEALMSSSAETSLEAAKRIAHRLLELAIRDSQGQVEWLGMDLGADGESFSFGPVGLSLYGGSIGIAHLLQRLQAQQVSLMDADAIQTAILQPLVGLVDQPSDDGRRRWWRDQPLGLSGCGGTLLALTLQGEQAMANSLLAAALPRFIEADQQLDLIGGCAGLIGSLVQLGTESALQLALRAGDHLIAQQNEEGAWSSSSSQPGLLGFSHGTAGYAAALAHLHAFSADERYRTAAAAALAYERARFNKDAGNWPDYRSIGRDSDSDEPSFMASWCHGAPGIALGRACLWGTALWDEECTKEIGIGLQTTAAVSSVSTDHLCCGSLGLMVLLEMLSAGPWPIDNQLRSHCQDVAFQYRLQALQRCSAEPIKLRCFGTKEGLLVLPGFFTGLSGMGLALLEDDPSRAVVSQLISAGLWPTESASGSGSGSAMSEEQLKAFIAKVQADTSLQEQLKAEGADVVAIAKAAGFTITTEDLNSHRQNLTDDELEGVAGG
modifications: Enzyme-Leader-Fusion
As to B1, the “output titre (number of phages eluted at the end of the round)” value reads like this: (R1, 100 nM kallikrein) 6.4e5; (R2, 33 nM kallikrein) 5.3e5; (R3, 0 nM kallikrein) 5.0e4; (R3, 9.75 nM kallikrein) 5.0e5. The “difference in titre using 9.75 nM kallikrein and using 0 nM kallikrein” value (R3) came out at 10 fold.

Values taken from US20170240883A1, “CYCLIC PEPTIDES EXPRESSED BY A GENETIC PACKAGE” (Miti Biosystems GmbH, priority 2014, published 2017).
